Results published in publication PMC7666136.

Key:
[1] = target: T1, eGFP-53BP1 (wild-type TP53-binding protein 1 tagged with enhanced green fluorescent protein), Q12888; experiment: Number and Brightness (NB) analysis of fluorescence fluctuation spectroscopy; frame scans in nuclei of live DIvA cells expressing eGFP-tagged 53BP1 constructs, 37 °C, brightness windows calibrated on free eGFP (B monomer 1.15, dimer 1.30, oligomer >1.60); before and 30-60 min after 4OHT induction of DSBs; also after knockdown of endogenous 53BP1; settings: remark: other sources report otherwise
T1 chain: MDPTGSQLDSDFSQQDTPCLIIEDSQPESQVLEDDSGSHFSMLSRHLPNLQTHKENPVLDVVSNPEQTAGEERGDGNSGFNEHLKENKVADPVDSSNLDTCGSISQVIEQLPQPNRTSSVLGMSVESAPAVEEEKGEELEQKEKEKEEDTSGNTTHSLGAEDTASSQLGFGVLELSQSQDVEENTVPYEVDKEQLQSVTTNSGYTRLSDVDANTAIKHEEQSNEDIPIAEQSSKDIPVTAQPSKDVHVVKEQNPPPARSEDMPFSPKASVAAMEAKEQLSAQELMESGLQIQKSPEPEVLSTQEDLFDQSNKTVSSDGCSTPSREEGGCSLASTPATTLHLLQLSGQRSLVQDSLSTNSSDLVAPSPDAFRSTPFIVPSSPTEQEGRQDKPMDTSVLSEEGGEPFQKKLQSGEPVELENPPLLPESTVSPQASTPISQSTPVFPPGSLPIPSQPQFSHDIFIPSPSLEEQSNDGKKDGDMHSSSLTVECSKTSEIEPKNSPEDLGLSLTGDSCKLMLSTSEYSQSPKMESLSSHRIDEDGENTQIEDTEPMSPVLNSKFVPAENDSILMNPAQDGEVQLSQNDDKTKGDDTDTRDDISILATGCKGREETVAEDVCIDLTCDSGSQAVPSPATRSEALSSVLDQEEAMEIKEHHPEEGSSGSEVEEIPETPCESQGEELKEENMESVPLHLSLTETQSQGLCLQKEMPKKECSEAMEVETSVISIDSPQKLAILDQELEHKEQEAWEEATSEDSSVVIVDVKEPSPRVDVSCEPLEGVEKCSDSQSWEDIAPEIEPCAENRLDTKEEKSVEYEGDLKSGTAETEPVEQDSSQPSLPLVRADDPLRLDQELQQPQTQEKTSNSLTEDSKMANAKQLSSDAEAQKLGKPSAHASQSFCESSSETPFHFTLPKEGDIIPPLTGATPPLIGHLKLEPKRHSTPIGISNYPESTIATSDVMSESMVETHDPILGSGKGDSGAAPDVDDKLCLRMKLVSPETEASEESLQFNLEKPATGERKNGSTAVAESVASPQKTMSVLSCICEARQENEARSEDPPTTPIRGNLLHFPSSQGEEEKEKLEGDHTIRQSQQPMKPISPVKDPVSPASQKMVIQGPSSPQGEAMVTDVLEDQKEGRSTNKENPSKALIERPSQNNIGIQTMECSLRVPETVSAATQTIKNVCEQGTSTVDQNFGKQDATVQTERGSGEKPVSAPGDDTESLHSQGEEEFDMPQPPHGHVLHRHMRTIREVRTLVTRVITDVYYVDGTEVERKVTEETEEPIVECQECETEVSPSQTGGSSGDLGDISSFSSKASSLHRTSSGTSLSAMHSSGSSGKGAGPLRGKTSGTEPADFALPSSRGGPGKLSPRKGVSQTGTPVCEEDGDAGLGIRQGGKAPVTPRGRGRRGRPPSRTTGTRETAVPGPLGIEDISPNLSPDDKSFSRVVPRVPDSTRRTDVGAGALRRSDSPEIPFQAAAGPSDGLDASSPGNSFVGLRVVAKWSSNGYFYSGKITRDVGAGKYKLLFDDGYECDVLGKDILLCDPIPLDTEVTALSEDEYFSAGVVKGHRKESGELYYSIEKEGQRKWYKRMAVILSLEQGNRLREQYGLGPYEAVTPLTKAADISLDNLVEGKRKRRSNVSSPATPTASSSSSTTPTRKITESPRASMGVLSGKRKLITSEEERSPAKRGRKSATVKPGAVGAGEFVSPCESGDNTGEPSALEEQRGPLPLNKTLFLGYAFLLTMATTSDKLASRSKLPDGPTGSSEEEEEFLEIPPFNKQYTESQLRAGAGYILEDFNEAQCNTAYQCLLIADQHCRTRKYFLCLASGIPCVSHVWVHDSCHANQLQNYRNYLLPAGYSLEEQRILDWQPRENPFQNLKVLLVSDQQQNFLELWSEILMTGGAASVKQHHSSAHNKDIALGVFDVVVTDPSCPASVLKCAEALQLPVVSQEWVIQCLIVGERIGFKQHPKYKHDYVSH

[2] = target: T1, eGFP-53BP1 (wild-type TP53-binding …); experiment: cross-pair correlation function (cross-pCF) analysis, two-colour fluorescence cross-correlation; two-channel line scans in live DIvA cells co-transfected with eGFP- and mKate2-tagged copies of the same 53BP1 construct, treated with 4OHT for 60 min; dimer fraction from cross pCF0 against pCF0, corrected for spectral bleed through; settings: remark: other sources report otherwise

fraction of dimer (NB, percent of pixels) [1]: 26%
fraction of oligomer (NB, percent of pixels) [1]: 2%
stoichiometry N [1]: 2
fraction of 53BP1 dimer (cross pCF0 against pCF0) [2]: 31%
B1: eGFP-53BP1 (wild-type TP53-binding protein 1 tagged with enhanced green fluorescent protein), Q12888 1-1972 (natural protein)
chain: MDPTGSQLDSDFSQQDTPCLIIEDSQPESQVLEDDSGSHFSMLSRHLPNLQTHKENPVLDVVSNPEQTAGEERGDGNSGFNEHLKENKVADPVDSSNLDTCGSISQVIEQLPQPNRTSSVLGMSVESAPAVEEEKGEELEQKEKEKEEDTSGNTTHSLGAEDTASSQLGFGVLELSQSQDVEENTVPYEVDKEQLQSVTTNSGYTRLSDVDANTAIKHEEQSNEDIPIAEQSSKDIPVTAQPSKDVHVVKEQNPPPARSEDMPFSPKASVAAMEAKEQLSAQELMESGLQIQKSPEPEVLSTQEDLFDQSNKTVSSDGCSTPSREEGGCSLASTPATTLHLLQLSGQRSLVQDSLSTNSSDLVAPSPDAFRSTPFIVPSSPTEQEGRQDKPMDTSVLSEEGGEPFQKKLQSGEPVELENPPLLPESTVSPQASTPISQSTPVFPPGSLPIPSQPQFSHDIFIPSPSLEEQSNDGKKDGDMHSSSLTVECSKTSEIEPKNSPEDLGLSLTGDSCKLMLSTSEYSQSPKMESLSSHRIDEDGENTQIEDTEPMSPVLNSKFVPAENDSILMNPAQDGEVQLSQNDDKTKGDDTDTRDDISILATGCKGREETVAEDVCIDLTCDSGSQAVPSPATRSEALSSVLDQEEAMEIKEHHPEEGSSGSEVEEIPETPCESQGEELKEENMESVPLHLSLTETQSQGLCLQKEMPKKECSEAMEVETSVISIDSPQKLAILDQELEHKEQEAWEEATSEDSSVVIVDVKEPSPRVDVSCEPLEGVEKCSDSQSWEDIAPEIEPCAENRLDTKEEKSVEYEGDLKSGTAETEPVEQDSSQPSLPLVRADDPLRLDQELQQPQTQEKTSNSLTEDSKMANAKQLSSDAEAQKLGKPSAHASQSFCESSSETPFHFTLPKEGDIIPPLTGATPPLIGHLKLEPKRHSTPIGISNYPESTIATSDVMSESMVETHDPILGSGKGDSGAAPDVDDKLCLRMKLVSPETEASEESLQFNLEKPATGERKNGSTAVAESVASPQKTMSVLSCICEARQENEARSEDPPTTPIRGNLLHFPSSQGEEEKEKLEGDHTIRQSQQPMKPISPVKDPVSPASQKMVIQGPSSPQGEAMVTDVLEDQKEGRSTNKENPSKALIERPSQNNIGIQTMECSLRVPETVSAATQTIKNVCEQGTSTVDQNFGKQDATVQTERGSGEKPVSAPGDDTESLHSQGEEEFDMPQPPHGHVLHRHMRTIREVRTLVTRVITDVYYVDGTEVERKVTEETEEPIVECQECETEVSPSQTGGSSGDLGDISSFSSKASSLHRTSSGTSLSAMHSSGSSGKGAGPLRGKTSGTEPADFALPSSRGGPGKLSPRKGVSQTGTPVCEEDGDAGLGIRQGGKAPVTPRGRGRRGRPPSRTTGTRETAVPGPLGIEDISPNLSPDDKSFSRVVPRVPDSTRRTDVGAGALRRSDSPEIPFQAAAGPSDGLDASSPGNSFVGLRVVAKWSSNGYFYSGKITRDVGAGKYKLLFDDGYECDVLGKDILLCDPIPLDTEVTALSEDEYFSAGVVKGHRKESGELYYSIEKEGQRKWYKRMAVILSLEQGNRLREQYGLGPYEAVTPLTKAADISLDNLVEGKRKRRSNVSSPATPTASSSSSTTPTRKITESPRASMGVLSGKRKLITSEEERSPAKRGRKSATVKPGAVGAGEFVSPCESGDNTGEPSALEEQRGPLPLNKTLFLGYAFLLTMATTSDKLASRSKLPDGPTGSSEEEEEFLEIPPFNKQYTESQLRAGAGYILEDFNEAQCNTAYQCLLIADQHCRTRKYFLCLASGIPCVSHVWVHDSCHANQLQNYRNYLLPAGYSLEEQRILDWQPRENPFQNLKVLLVSDQQQNFLELWSEILMTGGAASVKQHHSSAHNKDIALGVFDVVVTDPSCPASVLKCAEALQLPVVSQEWVIQCLIVGERIGFKQHPKYKHDYVSH
